What was measured:
[1] = target: human β2GPI (beta2-glycoprotein I) (human (endogenous in pooled normal human serum)) (UniProt P02749); assay: ELISA
[2] = target: mouse β2GPI (beta2-glycoprotein I) (mouse (endogenous in pooled BALB/c mouse serum)) (UniProt Q01339); assay: ELISA
[3] = target: domain V of human β2GPI (human) (UniProt P02749); assay: ITC
Chain of domain V of human β2GPI (human) (P02749 263-345): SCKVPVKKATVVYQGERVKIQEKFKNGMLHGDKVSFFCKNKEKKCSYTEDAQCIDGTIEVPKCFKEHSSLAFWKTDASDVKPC

Chain of human β2GPI (beta2-glycoprotein I) (human (endogenous in pooled normal human serum)) (P02749 20-345): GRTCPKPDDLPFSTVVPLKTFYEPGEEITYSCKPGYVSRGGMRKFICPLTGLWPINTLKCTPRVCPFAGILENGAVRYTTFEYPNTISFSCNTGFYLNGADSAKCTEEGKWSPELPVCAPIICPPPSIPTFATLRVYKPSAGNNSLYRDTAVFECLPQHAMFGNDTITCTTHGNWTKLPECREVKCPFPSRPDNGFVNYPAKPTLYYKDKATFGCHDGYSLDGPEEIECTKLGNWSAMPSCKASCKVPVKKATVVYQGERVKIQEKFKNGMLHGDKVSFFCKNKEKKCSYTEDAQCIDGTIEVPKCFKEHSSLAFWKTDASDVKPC
Chain of mouse β2GPI (beta2-glycoprotein I) (mouse (endogenous in pooled BALB/c mouse serum)) (Q01339 20-345): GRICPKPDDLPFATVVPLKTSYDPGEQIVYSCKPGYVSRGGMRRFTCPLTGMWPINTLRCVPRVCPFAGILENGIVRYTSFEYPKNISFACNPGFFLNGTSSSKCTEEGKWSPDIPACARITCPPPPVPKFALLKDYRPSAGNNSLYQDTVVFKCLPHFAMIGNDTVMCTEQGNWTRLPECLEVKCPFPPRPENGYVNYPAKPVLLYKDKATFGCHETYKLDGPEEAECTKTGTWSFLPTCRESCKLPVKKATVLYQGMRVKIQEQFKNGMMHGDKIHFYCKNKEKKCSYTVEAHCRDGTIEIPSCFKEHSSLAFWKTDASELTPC

Row | IC50 [1] [µM] | IC50 [2] [µM] | Kd [3] [µM] | dH [3] [kcal/mol] | stoichiometry N [3] | Substance
1 | 2.5 | 2.8 | – | – | – | Asn36/Asp mutant of mouse A1-A1 (from UniProt Q924X6 40-75; Q924X6 40-75)
2 | 5 | 3.1 | – | – | – | human A1-A1

Second part, the substance before the results:

Row | Substance | IC50 [1] [µM] | IC50 [2] [µM] | Kd [3] [µM] | dH [3] [kcal/mol] | stoichiometry N [3]
3 | human A1, first ligand-binding module of ApoE receptor 2 (ApoER2) (domain or fragment) | – | – | 20 | -6.3 | 1.06
4 | mouse A1, first ligand-binding module of ApoE receptor 2 (ApoER2) (domain or fragment) | – | – | 26 | -5.5 | 1.06
5 | mouse A1-A1 | 2.7 | 3 | – | – | –

From paper PMC4351136
